This passage reports Kd results from publication PMC10165143 (Computational and Structural Biotechnology Journal, 2023).

Where no end group is shown, it is not given here. [ ]: non-standard residue; d: D form. The star is where a group is joined. FITC = O=C1OC2(c3ccc(O)cc3Oc3cc(O)ccc32)c2ccc(NC(=S)*)cc21; pT = C[C@@H](OP(=O)(O)O)[C@H](N)C(=O)O

The target in test [1] is T1, Bmh1 (S. cerevisiae 14-3-3 isoform) (S. cerevisiae, UniProt P29311 1-267).
T1 sequence (looked up): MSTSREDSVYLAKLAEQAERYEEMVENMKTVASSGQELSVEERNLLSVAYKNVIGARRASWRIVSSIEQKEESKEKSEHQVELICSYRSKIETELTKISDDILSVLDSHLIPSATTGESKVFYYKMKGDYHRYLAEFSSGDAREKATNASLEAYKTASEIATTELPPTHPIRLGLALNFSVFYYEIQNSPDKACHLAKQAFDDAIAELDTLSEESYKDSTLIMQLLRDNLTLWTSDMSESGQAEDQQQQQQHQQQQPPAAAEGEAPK
Briefly: fluorescence polarisation. Background: Fluorescence polarisation rises when a labelled molecule tumbles more slowly, as on binding a larger partner.

Test [2] has as its target T2, Bmh2 (S. cerevisiae 14-3-3 isoform) (S. cerevisiae, UniProt P34730 1-273).
T2 sequence (looked up): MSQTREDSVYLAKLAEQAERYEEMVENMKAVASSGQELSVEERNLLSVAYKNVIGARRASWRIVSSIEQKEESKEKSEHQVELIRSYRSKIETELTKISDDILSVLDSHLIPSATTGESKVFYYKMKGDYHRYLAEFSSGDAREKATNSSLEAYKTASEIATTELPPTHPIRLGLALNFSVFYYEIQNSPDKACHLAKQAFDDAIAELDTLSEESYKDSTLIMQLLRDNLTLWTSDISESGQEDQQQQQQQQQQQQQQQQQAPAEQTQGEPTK
Kind of test: fluorescence polarisation.

B1: FITC-labeled synthetic Trk1 peptide (FITC-RRCFpTLLFP) with phosphorylated Thr900 (peptide)
peptide: {FITC}-RRCF[pT]LLFP
In the case of B1, the dissociation constant Kd amounted to 4 µM in test [1] and 3.4 µM in test [2].

One may read the Kd as the constant that tells how readily two partners part at equilibrium. A low value points to tighter binding.
